Results published in the supplement of paper PMC9170038.

Columns and labels:
Conditions in all cases: FMN input: 0 or 200 uM; Eterna round: R93 (includes R88 designs)
[1] = tested on: MS2 coat protein; test: apparent KD of MS2 coat protein, switch OFF state (with FMN for OFF switches, without FMN for ON switches); designed switch direction (-1 OFF switch, 1 ON switch): 1; higher = weaker reporter binding
How it was run: (§1)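 Apparent KD is reported per design as the median of normalised binding-curve fits across its clusters. The RNA switches were made by on-chip transcription from Illumina sequencing clusters. SNAP-549-labelled MS2 coat protein was then added in twofold steps (0.7 or 1.5 nM to 3 µM; 0.8–1.5 h to 10–20 min per step) in 100 mM Tris-HCl pH 7.5, 80 mM KCl, 4 mM MgCl2, without or with constant ligand.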

[2] = tested on: MS2 coat protein; test: apparent KD of MS2 coat protein, switch ON state; designed switch direction (-1 OFF switch, 1 ON switch): 1; higher = weaker reporter binding
How it was run: as §1

[3] = tested on: MS2 coat protein; test: apparent KD of MS2 coat protein, switch OFF state (with FMN for OFF switches, without FMN for ON switches); designed switch direction (-1 OFF switch, 1 ON switch): -1; higher = weaker reporter binding
How it was run: as §1

[4] = tested on: MS2 coat protein; test: apparent KD of MS2 coat protein, switch ON state; designed switch direction (-1 OFF switch, 1 ON switch): -1; higher = weaker reporter binding
How it was run: as §1

Sequence	apparent KD of MS2 coat protein [1] [nM]	apparent KD of MS2 coat protein [2] [nM]	apparent KD of MS2 coat protein [3] [nM]	apparent KD of MS2 coat protein [4] [nM]
AAAAAAAAAACUCAGGAUAUAGAUAAUUGAACAUGAGGAUCACCCAUGUAGUGAAAAAAAAAAAAUUAGAAGGGAGGAAAAAAAAA [SameState2-01]	45.4	52.9	–	–
AAAAAAAAAAGACAGGAUAUCCAAAAGAAAACAUGAGGAUCACCCAUGUAAAAGAAAAUAAAAUGGGAGAAGGGUCAAAAUAAAG [Mat - Same State 2 - JL mod - D74]	58.2	9.39	–	–
AAAAAAAAAAGGCAGGAUAUCCAAAAAAAAACAUGAGGAUCACCCAUGUAAAAAAAAAAAAAAUGGGAGAAGGGCCAAAAAAAAA [Mat - Same State 2 - Rerun Eli mod - D85]	64.4	63.1	–	–
AAAAAAAAUGUGUAGGAUAUCAGUAAAAAUACAUGAGGAUCACCCAUGUUCAAAAAAAAAAAAACUGAGAAGGACACGGGAAGUCC [Design 2]	18.5	20.5	–	–
AAAAAACAUGAGGAUCACCCAUGUAAAAAAAACACAGGAUAUCCCUUUUAAAAAAAAAAAGGAGAAGGGUGAAAAA [Nob's Hobby 5 - Jieux - Same State 1]	29.9	16.1	–	–
AAAAAACAUGAGGAUCACCCAUGUAAAAAAAAUGGAGGAUAUUGGAAAAAAAAAAAAAAACGAGAAGGCUAAAAAA [quick and simple]	50.4	44.4	–	–
AAAAAACAUGAGGAUCACCCAUGUAAAAAAAUCGCAGGAUAUAGGGUCGCGAAAGCGACCCUAGAAGGGCGAUCCU [Louisiana 2 - Jieux - Same State 1]	76.1	52	–	–
AAAAAACAUGAGGAUCACCCAUGUAAAAAAAUGGGAGGAUAUACAAAAACGAAAAAAAAAGUAGAAGGCCUGAAAA [same state 8]	162	57.4	–	–
AAAAAACAUGAGGAUCACCCAUGUAAAAAAAUGGGAGGAUAUACAAAGACGAAAGUCAAAGUAGAAGGCCUGAAAG [same state 3]	58.4	21.7	–	–
AAAAAACAUGAGGAUCACCCAUGUAAAAAUAUGGAAGGAUAUGGAAACACGAAAGUGAAACCAGAAGGUCUAAAAG [77%, Mat - Mod of Eli, 10]	21.3	17.1	–	–
AAAAAACAUGAGGAUCACCCAUGUAAACCUCAUGUAGGAUAUACAAAAAAAAAAAAAAAAGUAGAAGGACAAAAAA [Omei A variation 2]	1970	4790	–	–
AAAAAACAUGAGGAUCACCCAUGUCUUUUGACAUGAGGAUAUGUACAGACUUCGGUCUGUACAGAAGGCAUGAAAA [SS1 - 1029]	432	48.4	–	–
ACCCGACAUGAGGAUCACCCAUGUAAACAAUCAUGAGGAUAUCCGGAGCAAGUGCUCCAGGGAGAAGGCAUAAAAG [Reesbema]	122	–	–	–
AGGUAACAUGAGGAUCACCCAUGUACCAAUAAUGCAGGAUAUCGACACGAAAAUACGUGUCGAGAAGGGCAUGAAA [SS1 MT 22]	–	13.4	–	–
GGAAAACAUGAGGAUCACCCAUGUAAGGAUAUGCAAAAAAAGGAUAUAGAAGGAAAAAGCAGAAGGUACAAAGG [salish99-ex1-24]	–	–	55.5	30.6
GGAAAACAUGAGGAUCACCCAUGUCAGGAUAUACAAAGAAAGAAAGAAAAGAAAGAAAGUAGAAGGGACUAAAG [Amethyst 16]	–	–	37.9	20.4
GGAAAACAUGAGGAUCACCCAUGUGAGGAUAUCGAUGUCCAAUAAAAAGUGCGGGACUCGAGAAGGCACUUGGA [salish99-ex1-41]	–	–	29.2	36.2
GGAAAGCGAGGAUAUACAUGAGGAUCACCCAUGUAAACAAACAAACAAACAAACAAAUGUAGAAGGCGCAAAAC [Exclusion 3 Strange]	–	–	50.6	49
GGAGUGCAAGGAUAUACAUGAGGAUCACCCAUGUGAGAGAAAAAAGUGAGAAAGAAAAGUAGAAGGUGCGUUCG [salish99-ex3-131]	–	–	44.8	29.2
GGGUACGCAGGAUAUACAUGAAAAAAAAAAAAAAAAAAAAAACAUGAGGAUCACCCAUGUAGAAGGGCGUAUCC [hsl_exclusion2]	–	–	314	92.5
GGGUCACAUGAGGAUCACCCAUGUAAGGAUAUGCUAGGGAUGGAAGCCAGGCCAAAAAGCAGAAGGUACUAAAG [Janelle Amethyst 18 Mod 15 - Jieux - Exclusion 1]	–	–	85.8	41.2
GGUUGAAUAGGAUAUACAUGAGGAUCACCCAUGUGAGAGAAAAAAGUGAGAAAGAAAAGUAGAAGGAUUUGACG [salish99-ex3-61]	–	–	65.1	34.7

Sequence	apparent KD of MS2 coat protein [1] [nM]	apparent KD of MS2 coat protein [2] [nM]	apparent KD of MS2 coat protein [3] [nM]	apparent KD of MS2 coat protein [4] [nM]
GGUUGGCGAGGAUAUACAUGAGGAUCACCCAUGUGAGAGAAAAAAGUGAGAAAGAAUAGUAGAAGGCGCUGACG [salish99-ex3-40]	–	–	255	42.5
GGUUGGCGAGGAUAUACAUGAGGAUCACCCAUGUGAGAGAAAAAAGUGAGAAAGAUAAGUAGAAGGCGCUGACG [salish99-ex3-39]	–	–	169	80.3
GGUUGGCGAGGAUAUACAUGAGGAUCACCCAUGUGAGAGAAAAAAGUGAGAUAGAAAAGUAGAAGGCGCUGACG [salish99-ex3-34]	–	–	286	58.8
GGUUGGCGAGGAUAUACAUGAGGAUCACCCAUGUGAGAGAAAAAAGUGAGGAAGAAAAGUAGAAGGCGCUGACG [salish99-ex3-14]	–	–	636	32
GGUUGUGAAGGAUAUACAUGAGGAUCACCCAUGUGAGAGAAAAAAGUGAGAAAGAAAAGUAGAAGGUCGUGACG [salish99-ex3-73]	–	–	40.2	34.7
GUAAACCUAGGAUAUACAUGAGGAUCACCCAUGUAAAAUUUCAUAAAAAGAAAAUCAAGUAGAAGGAGGUAGAU [JR_Exc003_Sub1223]	–	–	24.8	17.3
GUGUACAGAGGAUAUACAUGAGCUAGGAAACUAGCAAGAUCACAUGAGGAUCACCCAUGUAGAAGGCUGUACAC [Ex2: 734]	–	–	16.3	70
GUUGUGCGAGGAUAUAUGUGAGGUUUGCCUCAACAGGUAAUACAUGAGGAUCACCCAUGUAGAAGGCGCAUGAG [S1-(23.6);S2-(22.1) [87C]]	–	–	342	67.3
UAAAAACAUGAGGAUCACCCAUGUGAGGAUAUCGAAAAAAAAAAAUUAAAAAAGGAAGCGAGAAGGUACGGGAU [close, no cigar]	–	–	33.2	33.3
UAAAGACAUGAGGAUCACCCAUGUGAGGAUAUCGGAGAUAACAGAACAUCAAGUUCAGCGAGAAGGCACAGAAA [JR_Exc001_Sub402]	–	–	72	47.2
UAAAGACAUGAGGAUCACCCAUGUGAGGAUAUCGGAGGUGACGGAACAUCGAGUUCGGCGAGAAGGCGCAGGAA [JR_Exc001_Sub408]	–	–	49	69.6
UAGAACCUAGGAUAUACUUGGACCACUAAUUUACAGAUAUAACAUGAGGAUCACCCAUGUAGAAGGAGGAGUAA [JR_Exc002_Sub202]	–	–	25.7	36.8
UAUAUACAUGAGGAUCACCCAUGUCAGGAUAUGCGCCUAGAAUAUACAUAAGAUACAAGCAGAAGGGACACUAA [JR_Exc001_Sub206]	–	–	49.9	57.3
UAUGAGCGAGGAUAUGCUUGGGACUGUCGGAAUGUGGCGGGACAUGAGGAUCACCCAUGUAGAAGGCGCGAGCG [Harteesian Stick]	–	–	126	77.9
UCCGAACAUGAGGAUCACCCAUGUCAGGAUAUACACCCAGCAUGUAAACCAUGCUCAAGUAGAAGGGACGGGUG [Teisaes]	–	–	25.7	34.9
UCCUCACAUGAGGAUCACCCAUGUGAGGAUAUGUACAUCAGGAAAAAAAAACUGAUGUACAGAAGGCACAUGGG [Design 8: Super Stable G-C]	–	–	15.2	30.8
UCGUGGUCAGGAUAUACAUGAGGAUCACCCAUGUAAAAGAACAUAAAGGAGAGACGACGUAGAAGGGACAAAUA [Ralasoena]	–	–	51.5	46.3
UGCAUGUAAGGAUAUGCAACCGGCGCACAUUAGCAGGUCAAGCAGAAGGUACAUGAGGAUCACCCAUGUGUCCG [Lalebiis]	–	–	99.4	26.9
UGUUGGCGAGGAUAUACAUGAGGAUCACCCAUGUGAGAGAAAAAAGUGAGAAAGAAAAGUAGAAGGCGCUGACC [salish99-ex3-10]	–	–	203	68.5
UUUAUGUGAGGAUAUCAGUAGUAAAAAAAUAAAAUUACUACUGAGAAGGCACAUGAGGAUCACCCAUGUGAAAA [EX4 340: Super Stable 40]	–	–	161	61.9
UUUUGACAUGAGGAUCACCCAUGUCAGGAUAUAGUAGGAAAAAAAAAAAAAAAAACUACUAGAAGGGAUAUGGA [Design 15: Not So Super Stable 1]	–	–	40.2	21.7
